Measured values as given in patent US20260124314A1, “ANTl-5T4 ANTIGEN BINDING DOMAINS, ANTIBODY-DRUG CONJUGATES AND METHODS OF USE THEREOF” (Salubris Biotherapeutics, Inc., priority 2023, published 2026).
One block for each molecule: values may come before it.

Columns and labels:
FcγRIIIb [1] = molecular target: T1, FcγRIIIb (Homo sapiens, UniProt O75015); experiment: FcγR binding activity, Biacore SPR; details: antibody captured on protein A chip, receptor 0.41 nM to 100 nM
T1 construct: purchased Sino Biological
Method: (§1) Site mutations (L234F and S239C) in the Fc region of anti-5T4 bispecific antibody-drug conjugates were designed to mitigate potential side effects which could be caused by the antibody effector function. To confirm the mutations had the intended effect of reducing Fc receptor binding activities, the affinities between an anti-5T4 bispecific antibody with Fc mutations and an array of Fc receptors were evaluated by Biacore assay. A total of 5 Fc receptors, including FcγRI (Abcam), FcγRIIa, FcγRIIb, FcγRIIIa (158V), and FcγRIIIb (Sino Biological), were analyzed. One parental anti-5T4 Antibody (Ab1) without Fc mutations, was used as a positive control for FcR binding. SPR kinetic experiments were performed on Biacore 8K systems (GE Healthcare) with HBS-EP+ as running buffer. Antibodies were captured in the active flow cell of a protein A sensor chip (Cytiva). Capture level for each ligand was maintained between 50-100RU. For kinetic analysis, each receptor was serially diluted to 6 different concentrations, ranging from 0.41 nM to 100 nM, and the serial dilutions were injected sequentially over both reference and active flow cells in each single channel. After each binding cycle, the sensor chip was regenerated with glycine solution, pH 1.5. The resulting sensorgrams were fitted with a one-to-one binding model to extract kinetic constants using Biacore 8K Evaluation Software.
(§2) Site mutations (L234F, S239C and N434A) in the Fc region of the Bs3-HL biparatopic antibody are designed to mitigate potential side effects caused by the antibody effector function.

FcγRIIa [2] = molecular target: T2, FcγRIIa (Homo sapiens, UniProt P12318); experiment: FcγR binding activity, Biacore SPR; details: antibody captured on protein A chip, receptor 0.41 nM to 100 nM
T2 construct: purchased Sino Biological
T2 sequence (P12318 34-317): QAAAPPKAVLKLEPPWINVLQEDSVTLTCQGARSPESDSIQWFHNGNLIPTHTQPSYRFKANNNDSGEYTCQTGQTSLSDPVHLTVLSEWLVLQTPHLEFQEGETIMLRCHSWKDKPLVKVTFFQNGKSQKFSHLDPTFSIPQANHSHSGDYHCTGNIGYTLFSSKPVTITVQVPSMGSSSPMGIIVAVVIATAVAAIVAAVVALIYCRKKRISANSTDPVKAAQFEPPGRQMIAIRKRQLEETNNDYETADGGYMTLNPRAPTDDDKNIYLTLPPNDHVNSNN
Method: as §1, §2

FcγRIIb [3] = molecular target: T3, FcγRIIb (Homo sapiens, UniProt P31994); experiment: FcγR binding activity, Biacore SPR; details: antibody captured on protein A chip, receptor 0.41 nM to 100 nM
T3 construct: purchased Sino Biological
T3 sequence (P31994 43-310): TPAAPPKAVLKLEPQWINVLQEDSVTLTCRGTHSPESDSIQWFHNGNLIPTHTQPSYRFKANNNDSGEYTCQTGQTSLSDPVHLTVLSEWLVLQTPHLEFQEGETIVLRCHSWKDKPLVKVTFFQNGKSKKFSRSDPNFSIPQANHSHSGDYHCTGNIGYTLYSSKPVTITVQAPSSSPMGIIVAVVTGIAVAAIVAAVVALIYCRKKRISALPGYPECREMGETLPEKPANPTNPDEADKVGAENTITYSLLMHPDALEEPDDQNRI
Method: as §1, §2

FcγRI = molecular target: T4, FcγRI (Homo sapiens, UniProt P12314); experiment: FcγR binding activity, Biacore SPR; details: antibody captured on protein A chip, receptor 0.41 nM to 100 nM
T4 construct: purchased Abcam
Method: (§3) A total of 5 Fc receptors, including FcγRI (Abcam), FcγRIIa, FcγRIIb, FcγRIIIa (158V), and FcγRIIIb (Sino Biological), were analyzed. One parental anti-5T4 Antibody (Ab1) without Fc mutations, was used as a positive control for FcR binding. SPR kinetic experiments were performed on Biacore 8K systems (GE Healthcare) with HBS-EP+ as running buffer. […] Capture level for each ligand was maintained between 50-100RU. […] After each binding cycle, the sensor chip was regenerated with glycine solution, pH 1.5. The resulting sensorgrams were fitted with a one-to-one binding model to extract kinetic constants using Biacore 8K Evaluation Software.

FcγRIIIa (158V) [4] = molecular target: T5, FcγRIIIa (158V) (Homo sapiens, UniProt P08637, F176V); experiment: FcγR binding activity, Biacore SPR; details: antibody captured on protein A chip, receptor 0.41 nM to 100 nM
T5 construct: purchased Sino Biological
Method: as §3

FcγRIIIa (158V) [5] = molecular target: T6, FcγRIIIa (158V) (UniProt P08637 17-208); experiment: SPR (Biacore 8K), antibody captured on Protein A chip, Fc receptor as analyte
T6 construct: 158 is usually counted on the mature protein (176 on the precursor); also called Fc gamma receptor IIIa
Method: as §3, with “One parental anti-5T4 Antibody (Ab1) without Fc mutations, was used as a positive control for FcR binding.” left out

FcγRIIIb [6] = molecular target: T7, FcγRIIIb (UniProt O75015 17-200, limits assumed); experiment: as above
T7 construct: also called Fc gamma receptor IIIb
Method: as §3, with “One parental anti-5T4 Antibody (Ab1) without Fc mutations, was used as a positive control for FcR binding.” left out

[7] = molecular target: T8, recombinant human 5T4 protein (human, UniProt Q13641 32-355); experiment: SPR (Biacore 8K), antibody captured on Protein A chip, 5T4 as analyte 0.625-10 nM, 1:1 model
T8 construct: The ELISA protein was bought (Sino biologics and Biorbyt); also called recombinant 5T4 protein; trophoblast glycoprotein (TPBG)
T8 sequence: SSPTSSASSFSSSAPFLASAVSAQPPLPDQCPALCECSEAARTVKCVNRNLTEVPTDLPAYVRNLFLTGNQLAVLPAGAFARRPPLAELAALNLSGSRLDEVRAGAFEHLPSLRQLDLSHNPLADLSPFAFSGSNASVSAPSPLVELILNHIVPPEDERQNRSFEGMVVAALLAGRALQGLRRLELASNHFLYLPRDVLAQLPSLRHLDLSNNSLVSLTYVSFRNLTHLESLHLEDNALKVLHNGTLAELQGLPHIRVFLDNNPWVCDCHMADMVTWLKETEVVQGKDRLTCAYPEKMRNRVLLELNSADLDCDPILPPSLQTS
Method: The binding affinity of anti-5T4 bispecific antibody-drug conjugate monospecific and bispecific antibodies to 5T4 was measured by Biacore kinetic experiments using a Protein A sensor chip on Biacore 8K (Cytiva) with HBS-EP+ as running buffer. […] After each binding cycle, the sensor chip was regenerated with glycine solution, pH 1.5. Signals from reference surface and an ensemble of buffer blank injections were subtracted from binding signals to correct for nonspecific binding and injection artifacts. The corrected experimental signals were globally fitted to a 1:1 binding model to extract kinetic constants, including association rate constant (ka), dissociation rate constant (kd), and equilibrium dissociation constant (KD), using the Biacore 8K Evaluation Software.

FcγRI (Abcam) = molecular target: T9, FcγRI (Abcam) (UniProt P12314 16-288, limits assumed); experiment: SPR (Biacore 8K), antibody captured on Protein A chip, Fc receptor as analyte, 1:1 model
T9 construct: also called Fc gamma receptor I
Method: as §3, with “One parental anti-5T4 Antibody (Ab1) without Fc mutations, was used as a positive control for FcR binding.” left out

FcγRIIa [8] = molecular target: T10, FcγRIIa (UniProt P12318 34-218, limits assumed); experiment: as above
T10 construct: also called Fc gamma receptor IIa
T10 sequence (looked up): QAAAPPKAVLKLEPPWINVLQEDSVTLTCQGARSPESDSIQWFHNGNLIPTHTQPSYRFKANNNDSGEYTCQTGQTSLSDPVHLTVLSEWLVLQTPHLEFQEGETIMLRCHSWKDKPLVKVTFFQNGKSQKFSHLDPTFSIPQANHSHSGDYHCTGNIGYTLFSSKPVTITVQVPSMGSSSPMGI
Method: as §3, with “One parental anti-5T4 Antibody (Ab1) without Fc mutations, was used as a positive control for FcR binding.” left out

FcγRIIb [9] = molecular target: T11, FcγRIIb (UniProt P31994 43-217, limits assumed); experiment: as above
T11 construct: also called Fc gamma receptor IIb
T11 sequence (looked up): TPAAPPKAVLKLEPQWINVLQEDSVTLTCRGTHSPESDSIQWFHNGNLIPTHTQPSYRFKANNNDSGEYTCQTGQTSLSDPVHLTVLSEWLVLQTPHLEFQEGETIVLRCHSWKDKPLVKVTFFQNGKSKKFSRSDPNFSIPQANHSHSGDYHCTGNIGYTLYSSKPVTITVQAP
Method: as §3, with “One parental anti-5T4 Antibody (Ab1) without Fc mutations, was used as a positive control for FcR binding.” left out

T6 sequence (P08637 17-208 F176V): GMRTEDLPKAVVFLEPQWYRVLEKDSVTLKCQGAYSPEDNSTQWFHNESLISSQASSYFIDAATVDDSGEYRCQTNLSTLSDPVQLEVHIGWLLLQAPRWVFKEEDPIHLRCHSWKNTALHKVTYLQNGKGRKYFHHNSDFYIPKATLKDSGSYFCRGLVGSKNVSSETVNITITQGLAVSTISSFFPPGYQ
T5 sequence (P08637 17-208 F176V limits assumed): as the sequence (P08637 17-208 F176V) above
T9 sequence (P12314 16-288 limits assumed): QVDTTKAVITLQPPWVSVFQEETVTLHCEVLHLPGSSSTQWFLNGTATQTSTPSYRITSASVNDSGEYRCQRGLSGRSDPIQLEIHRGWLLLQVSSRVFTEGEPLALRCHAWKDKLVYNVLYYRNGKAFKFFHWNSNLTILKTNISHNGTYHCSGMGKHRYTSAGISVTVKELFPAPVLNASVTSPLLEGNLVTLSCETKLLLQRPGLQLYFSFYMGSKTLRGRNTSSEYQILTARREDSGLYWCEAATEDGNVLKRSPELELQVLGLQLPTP
T1 sequence (O75015 17-200): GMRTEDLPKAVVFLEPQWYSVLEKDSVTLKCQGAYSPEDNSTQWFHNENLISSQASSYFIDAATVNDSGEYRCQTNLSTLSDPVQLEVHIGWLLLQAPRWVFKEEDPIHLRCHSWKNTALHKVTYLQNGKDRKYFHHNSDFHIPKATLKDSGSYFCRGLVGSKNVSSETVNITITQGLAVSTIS
T7 sequence (O75015 17-200 limits assumed): as the sequence (O75015 17-200) above
T4 sequence (P12314 16-374): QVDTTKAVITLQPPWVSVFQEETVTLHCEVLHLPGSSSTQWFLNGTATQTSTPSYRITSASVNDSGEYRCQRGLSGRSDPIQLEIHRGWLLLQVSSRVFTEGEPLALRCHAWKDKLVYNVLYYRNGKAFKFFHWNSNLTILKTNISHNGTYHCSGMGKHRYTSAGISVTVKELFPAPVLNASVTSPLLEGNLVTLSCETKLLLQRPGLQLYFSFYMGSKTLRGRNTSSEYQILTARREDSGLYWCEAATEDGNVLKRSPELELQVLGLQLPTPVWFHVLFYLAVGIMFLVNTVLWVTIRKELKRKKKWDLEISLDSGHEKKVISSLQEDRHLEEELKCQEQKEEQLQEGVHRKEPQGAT

KD for binding to FcγRIIIb (FcγRIIIb [1]): No binding
Kd (FcγRIIa [2]): 98.6 nM
Kd (FcγRIIb [3]): 111 nM
Kd (FcγRI): 3.73 nM
Kd (FcγRIIIa (158V) [4]): 50.5 nM
B1: Parental Ab1 without Fc mutations: parental anti-5T4 Antibody (Ab1) without Fc mutations, used as a positive control for FcR binding (antibody, V domains shown)
VH: QVQLVQSGAEVKKPGASVKVSCKASGYSFTDYYMHWVRQAPGQGLEWMGRVSPNNGATNTNQKFKDRVTMTRDTSISTAYMELRSLRSEDTAVYYCARSTMITSYYFDYWGQGTLVTVSS
VL: DIVMTQSPSFLSVSVGDRVTITCKASQSVSTDVAWYQQKPGQAPKLLIYFASDRYTGVPDRFSGSGSGTDFTFTISSLQAEDVAVYYCQQDYSSPPTFGGGTKLEIK

Kd [7]: 0.775 nM
Kd (FcγRI (Abcam)): 39.6 nM
Kd (FcγRIIa [8]): 91.5 nM
Kd (FcγRIIb [9]): 116 nM
B2: Bs3-HL-FCA biparatopic anti-5T4 antibody (Bs3 with the scFv in the VH-VL orientation and the L234F, S239C and N434A mutations) (bispecific antibody, human IgG1, kappa)
heavy: QVQLVQSGAEVKKPGASVKVSCKASGYSFTDYYMHWVRQAPGQGLEWMGRVSPNNGATNTNQKFKDRVTMTRDTSISTAYMELRSLRSEDTAVYYCARSTMITSYYFDYWGQGTLVTVSSASTKGPSVFPLAPSSKSTSGGTAALGCLVKDYFPEPVTVSWNSGALTSGVHTFPAVLQSSGLYSLSSVVTVPSSSLGTQTYICNVNHKPSNTKVDKRVEPKSCDKTHTCPPCPAPEFLGGPCVFLFPPKPKDTLMISRTPEVTCVVVDVSHEDPEVKFNWYVDGVEVHNAKTKPREEQYNSTYRVVSVLTVLHQDWLNGKEYKCKVSNKALPAPIEKTISKAKGQPREPQVYTLPPSREEMTKNQVSLTCLVKGFYPSDIAVEWESNGQPENNYKTTPPVLDSDGSFFLYSKLTVDKSRWQQGNVFSCSVMHEALHAHYTQKSLSLSPGKGGGGSGGGGSGGGGSEVQLLESGGGLVQPGGSLRLSCAASGFDFSRYWMTWVRQAPGKCLEWVSEINPDSRTINYTPSLKDRFTISRDNAKNTLYLQMNSLRAEDTAVYYCARPDHDYNPYYFNYWGQGTTVTVSSGGGGSGGGGSGGGGSGGGGSDIVLTQSPASLAVSLGQRATISCRPSQSVSTSSNSYIHWYQQKPGQPPKLLIKYASNLESGVPARFSGSGSGTDFTLTISPVEAEDTATYYCQQSWEIPLTFGCGTKLEIK
light: DIVMTQSPSFLSVSVGDRVTITCKASQSVSTDVAWYQQKPGQAPKLLIYFASDRYTGVPDRFSGSGSGTDFTFTISSLQAEDVAVYYCQQDYSSPPTFGGGTKLEIKRTVAAPSVFIFPPSDEQLKSGTASVVCLLNNFYPREAKVQWKVDNALQSGNSQESVTEQDSKDSTYSLSSTLTLSKADYEKHKVYACEVTHQGLSSPVTKSFNRGEC
notes: also called 5T4-Bs3- FCA; BsAb with the FCA mutations
binding result (FcγRIIIa (158V) [5]): no binding (tested: receptor 0.41 nM to 100 nM)
binding result (FcγRIIIb [6]): no binding (tested: receptor 0.41 nM to 100 nM)
